From paper PMC10998907 (Nature Communications, 2024)

Molecular target: NiV-RBP ectodomain homotetramer (Nipah virus, Malaysia (deposit 8K3C …, UniProt Q9IH62))
Experiment: cryo-EM structure
Conditions: both partners purified

NiV-RBP ectodomain homotetramer (Nipah virus, Malaysia, sequence (Q9IH62 whole entry, looked up, the tested form may be a part): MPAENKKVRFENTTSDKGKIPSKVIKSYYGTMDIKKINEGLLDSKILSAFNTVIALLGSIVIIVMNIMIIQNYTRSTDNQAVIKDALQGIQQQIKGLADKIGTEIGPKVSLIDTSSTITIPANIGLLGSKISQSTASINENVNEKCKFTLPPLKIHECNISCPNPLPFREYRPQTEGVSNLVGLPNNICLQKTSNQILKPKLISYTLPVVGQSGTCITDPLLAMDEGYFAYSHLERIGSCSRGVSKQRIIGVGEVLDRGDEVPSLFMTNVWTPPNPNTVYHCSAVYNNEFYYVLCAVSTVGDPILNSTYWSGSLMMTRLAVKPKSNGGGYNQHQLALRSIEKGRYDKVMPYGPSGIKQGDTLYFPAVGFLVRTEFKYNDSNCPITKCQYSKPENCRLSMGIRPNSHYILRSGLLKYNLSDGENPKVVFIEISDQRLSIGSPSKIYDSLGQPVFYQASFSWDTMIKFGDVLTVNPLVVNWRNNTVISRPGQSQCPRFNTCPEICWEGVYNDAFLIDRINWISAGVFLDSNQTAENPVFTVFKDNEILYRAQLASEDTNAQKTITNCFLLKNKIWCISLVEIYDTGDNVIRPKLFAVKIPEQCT

B1: 41-6 Fab fragment (Fab, V domains shown)
VH: EVQLVQSGGGLVQPGGSLRLSCAASGFTVSSNYMSWVRQAPGKGLEWVSAISGSGGSTYYADSVKGRFTISRDNSKNTLYLQMNSLRAEDTAVYYCARDREDIVVVPAPRGYYYYYYMDVWGQGTTVTVSS
VL: QSVVTQPPSVSAAPGQKVTISCSGSSSNIGTNHLSWYQQVPGTAPKLLIYDNNKRPSGIPDRFSGSKSGTSASLAISGLQSEDEADYYCATWDDSLHAWVFGGGTKLTVL
stoichiometry N: 3
